Experimental data taken from article PMC3951439.

Biological target: EZH2 subunit of purified human PRC2 (human) (UniProt Q15910)
Sequence (Q15910 whole entry): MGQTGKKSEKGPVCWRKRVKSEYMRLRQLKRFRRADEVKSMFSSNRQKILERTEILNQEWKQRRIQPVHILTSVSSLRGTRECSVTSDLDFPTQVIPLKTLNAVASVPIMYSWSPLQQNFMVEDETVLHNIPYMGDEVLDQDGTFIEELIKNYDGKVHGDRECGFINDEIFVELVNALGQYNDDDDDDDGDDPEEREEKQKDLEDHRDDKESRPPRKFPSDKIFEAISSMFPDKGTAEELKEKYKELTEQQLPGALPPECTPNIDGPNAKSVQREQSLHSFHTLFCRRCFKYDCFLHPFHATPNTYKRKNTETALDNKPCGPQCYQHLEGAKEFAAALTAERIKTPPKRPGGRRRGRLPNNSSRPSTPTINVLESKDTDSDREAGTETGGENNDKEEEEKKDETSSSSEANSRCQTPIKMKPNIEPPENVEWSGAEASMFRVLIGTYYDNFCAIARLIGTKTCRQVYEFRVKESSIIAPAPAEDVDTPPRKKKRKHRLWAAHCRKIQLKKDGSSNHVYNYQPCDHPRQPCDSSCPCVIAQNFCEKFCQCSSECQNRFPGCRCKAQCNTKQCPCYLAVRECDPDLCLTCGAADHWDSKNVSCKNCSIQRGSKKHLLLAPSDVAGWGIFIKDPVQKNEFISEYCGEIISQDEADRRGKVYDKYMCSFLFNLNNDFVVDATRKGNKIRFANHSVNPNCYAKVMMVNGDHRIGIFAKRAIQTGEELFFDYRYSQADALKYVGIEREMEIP

- IC50 of inhibition of PRC2 methyltransferase activity in vitro, peptide titrated: 8.9 µM
Substance: H3 peptide (18 to 37) containing K27Ile (from UniProt P84243 19-38)
